Consider 1 molecule from patent publication US20050079613A1, “Downregulation of cell surface glycoproteins by a family of human ubiquitin ligases” (Oregon Health & Science University, priority 2002, published 2005).

One series has as its system HLA-A2.1. Put plainly: Surface expression of co-transfected HLA-A2.1 constructs on HeLa cells, flow cytometry. The series is classed as cell-based, human. On the procedure: Flow cytometry. Cells were removed from tissue culture dishes with 0.05% Trypsin-EDTA (Invitrogen), washed with ice-cold PBS, and incubated with appropriate antibody for 30 minutes at 4° C. The cells were washed with ice-cold PBS and either resuspended in ice-cold PBS or incubated with PE-conjugated anti-mouse secondary antibody (DAKO) and washed again before analysis with a BD Biosciences (San Jose, Calif.) FACScalibur flow cytometer.
The ability to downregulate MHC I is common to KSHV-K3, KSHV-K5, MHV68-K3 and MV-M153R (Coscoy and Ganem, 2000, supra; Guerin et al., 2002, supra; Ishido et al., 2000b supra; Stevenson et al., 2000, supra). Additional substrates are ICAM-1 and B7.2 (but not B7.1) for KSHV-K5, as well as CD95 and CD4 for M153R (Coscoy and Ganem, 2001, supra; Guerin et al., 2002, supra; Ishido et al., 2000a, supra; Mansouri et al., 2003, supra). Since only low copy numbers were detected in HeLa cells for transcripts corresponding to each of the MARCH-proteins (FIG. 7C, and data not shown), HeLa cells were transfected with expression plasmids for MARCH-I, II, III, IV, V and VIII. Surface expression of selected glycoproteins was monitored upon transfection. The following known substrates for viral K3-family members were tested: Fas (CD95) and HLA class I (MHC I), both of which are endogenously expressed in HeLa cells, as well as transfected HLA-A2.1 or CD4. […] Surface expression of the respective markers was analyzed by flow cytometry. GFP was used to identify transfected cells.
The most likely targets for ubiquitination on transmembrane glycoproteins are lysines in the cytoplasmic tail. To examine the role of lysines for MHC I and CD4 downregulation by MARCH-IV, a panel of constructs derived from the human MHC I molecule HLA-A2.1 and a lysine-deleted version of CD4 (Mansouri et al., 2003, supra) were used. In addition to MARCH-IV, MARCH-VIII was included in this analysis since it reduced HLA-A2.1 surface expression (FIG. 10A). […] To rule out the possibility that these mutations changed the target molecules in such a way that they are no longer recognized by MARCH-IV or VIII, a lysine residue into a HA-tag at the carboxyterminal end of HLA-A2.1 was introduced.

The next series deals with ubiquitin. In words: In vitro ubiquitination assay with GST-fused RING-CH (PHD) domains, E1, E2 panel, anti-ubiquitin immunoblot. The format is biochemical. Conditions: E2 = UbCH2. How it is done:
Ubiquitination assay. UbCH2 and UbCH3 were obtained from Boston Biochem. (His)6-UbCH5a and GST fusion proteins were expressed in BL21-DE3 cells (Stratagene) and BL21 cells (Amersham), respectively, and purified as previously described (Boutell, C., S. Sadis and R. D. Everett, J. Virol. 76:841-850, 2002; Tiwari, S. and A. M. Weissman, J. Biol. Chem. 276:16193-16200, 2001). Purified E3 proteins were stored at 4° C., and E2 proteins were stored at −80° C. In vitro reaction mixtures (20 μl total) included: 50 nM rabbit E1 (Boston Biochem), 28 μM Ubiquitin, 5 mM ATP, 50 mM Tris-HCl pH 7.5, 50 mM NaCl, and 2 mM DTT. E2 enzymes were used at concentrations varying from 0.1 to 2.3 μM, and E3 concentrations ranged from 3 to 30 μM. After 90 minutes of incubation at 30° C., reactions were stopped by boiling in SDS sample buffer. Samples were electrophoresed through 12% polyacrylamide SDS gels and blotted using anti-ubiquitin mouse antibody, P4D1 (Santa Cruz Biotech).
In vitro reaction mixtures (20 μl total) included: 50 nM rabbit E1 (Boston Biochem), 28 μM Ubiquitin, 10 mM ATP, 50 mM Tris-HCl pH 7.5, 50 mM NaCl, and 2 mM DTT. E2 enzymes were used at concentrations varying from 0.7 to 2.3 μM, and E3 concentrations ranged from 3 to 25 μM. After 90 minutes of incubation at 30° C., reactions were stopped by addition of 4×reducing sample buffer. Samples were electrophoresed through 12% SDS gels and blotted using anti-ubiquitin mouse antibody (Santa Cruz Biotech).
To examine if the RING-CH domains of MARCH-I and MARCH-II would act as ubiquitin ligases in vitro, DNA fragments encoding the amino-terminal RING-CH-domain of both proteins were fused to Glutathione-S-transferase. The resulting constructs were sequence confirmed and expression of GST-MARCH protein verified by immunoblot. The GST-fusion protein was expressed and purified from E. coli cultures using Glutathione-columns. The ICP0-RING-domain was also purified, in parallel with the MARCH-I and MARCH-II constructs. A panel of E2 enzymes was either purchased from commercial sources or purified either by nickel-chelate chromatography or on glutathione columns. All E2-enzymes formed mercapto-ethanol-sensisitve complexes with ubiquitin thus showing ubiquitin conjugating activity. Purified ubiquitin and E1 was obtained from commercial sources.
To examine if the RING-CH domains of MARCH proteins act as ubiquitin ligases in vitro, a DNA fragment encoding the amino-terminal RING-CH-domains of MARCH-I, II, IV and VIII were fused to Glutathione-S-transferase (GST) for bacterial expression. The GST-fusion proteins were purified from E. coli cultures using Glutathione-sepharose-columns. Approximately thirty E2 proteins are found in the human genome compared to only one E1 enzyme (Pickart, 2001, supra). […] The specificity and selectivity of E3s with respect to E2s, however, is not well characterized. To cover a spectrum of E2s, a panel of E2 enzymes (Mansouri et al., 2003, supra) was acquired. The various E2 enzymes were incubated with or without the RING-CH-GST fusions in the presence of ubiquitin, ATP, E1. The formation of multiubiquitin-adducts was examined by immunoblotting with antibodies against ubiquitin.

A further series has as its system MHC I. Put plainly: MHC I uptake assay in HeLa cells. The series is classed as cell-based, human. Conditions: transfected HeLa cells, 37° C. for 120 minutes. On the procedure:
Uptake Assay. Uptake of MHC I was measured as previously described (Ishido et al., 2000b, supra). In short, HeLa cells were transfected with MARCH-IV. Twenty four hours post-transfection cells were washed and an anti-MHC I antibody allowed to bind at 4° C. Cells were then either fixed immediately or transferred to 37° C. for 120 minutes to allow uptake of antibody bound glycoproteins. Antibody bound to glycoprotein was visualized using an Alexaflour:594-conjugated secondary antibody.
The observed downregulation of MHC I and CD4 by MARCH-IV permitted the study of the molecular mechanism by which MARCH-proteins reduce glycoprotein levels. […] The only known exception is MHV68-K3 which mediates proteasomal degradation of MHC I prior to its exit from the ER (Boname and Stevenson, 2001, supra). To study if MHC I was internalized by MARCH-IV, the recycling of MHC I in MARCH-IV transfected and non-transfected cells over the course of 2 hours was compared. MHC I on MARCH-IV transfected or non-transfected cells was labeled with anti-MHC I antibody at 4° C.

B1: MARCH-IV: human membrane-associated RING-CH ubiquitin ligase, SEQ ID NOS:45 and 57; construct used lacks the first 63 amino-acids (protein)
chain: WYCYGLCAPAPQMLRHQGLLKCRCRMLFNDLKVFLLRRPPQAPLPMHGDPQPPGLAANNTLPALGAGGWAGWRGPREVVGREPPPVPPPPPLPPSSVEDDWGGPATEPPASLLSSASSDDFCKEKTEDRYSLGSSLDSGMRTPLCRICFQGPEQGELLSPCRCDGSVKCTHQPCLIKWISERGCWSCELCYYKYHVIAISTKNPLQWQAISLTVIEKVQVAAAILGSLFLIASISWLIWSTFSPSARWQRQDLLFQICYGMYGFMDVVCIGLIIHEGPSVYRIFKRWQAVNQQWKVLNYDKTKDLEDQKAGGRTNPRTSSSTQANIPSSEEETAGTPAPEQGPAQAAGHPSGPLSHHHCAYTILHILSHLRPHEQRSPPGSSRELVMRVTTV
As for B1, in the series on HLA-A2.1 (HeLa cells), the “downregulation of HLA-A2.1 with a lysine re-introduced into the C-terminal HA-tag” value was “restored downregulation”. The “surface expression of transfected HLA-A2.1” value in the series on HLA-A2.1 (HeLa cells co-transfected with HLA-A2.1 and MARCH plasmid) was “reduced the surface expression”. Also, the “downregulation of HLA-A2.1 with lysines removed from the tail” value with HLA-A2.1 (HeLa cells, lysine-less HLA-A2.1 construct) was “resistant”. Moreover, the “ubiquitin ligase activity with UbCH2” value in the series with ubiquitin was “mostly active”. For the same molecule, the “internalization (uptake) of antibody-labeled MHC I” value with MHC I is reported as “rapid internalization”.
